16 molecules from patent publication US20130123350, “NUCLEIC ACID MOLECULE CAPABLE OF BINDING TO c-MET AND USE THEREOF” (KANAGAWA PREFECTURAL HOSPITAL ORGANIZATION, published 2013) can be followed below.

First the molecules themselves.
B1: g24 2'-F (ssRNA)
RNA: GGGACGCUCACGUACGCUAAGAGUUGUCGCACAGCGACUCGAAAAUAAUCUGUCCGACACUCAGUGCCUGGACGUGCAGU
modifications: 2'-F on all C and U
B2: g23 2'-F (ssRNA)
RNA: GGGACGCUCACGUACGCUAAAUGGGAGUGCGCCUCGGCUCUAACGGAGGUAUGCACGUCAUCAGUGCCUGGACGUGCAGU
modifications: 2'-F on all C and U
B3: g21 2'-F (ssRNA)
RNA: GGGACGCUCACGUACGCUAACCUUGGUGUCAUCCGACCAAAUUAGAACGGGAUGAGGAAGUCAGUGCCUGGACGUGCAGU
modifications: 2'-F on all C and U
B4: g32 2'-F (ssRNA)
RNA: GGGACGCUCACGUACGCUAAACAAGACCGGGAUGGGGGUUGGUCACACACAAAGACUGAAUCAGUGCCUGGACGUGCAGU
modifications: 2'-F on all C and U
B5: g28 2'-F (ssRNA)
RNA: GGGACGCUCACGUACGCUAACCUGGGGGUUCCGCAGGAAUCGGGAACUAGAUUGGUGGUCUCAGUGCCUGGACGUGCAGU
modifications: 2'-F on all C and U
B6: g19 2'-F (ssRNA)
RNA: GGGACGCUCACGUACGCUAAGUAGCCGUGAUUGGGUUGGCUGCCCACAAUUAUCCAGGACUCAGUGCCUGGACGUGCAGU
modifications: 2'-F on all C and U
B7: g33 2'-F (ssRNA)
RNA: GGGACGCUCACGUACGCUAAACUUUUGGCGAUCUCCGGCCGGAUACGGGAGAACGAGGUAUCAGUGCCUGGACGUGCAGU
modifications: 2'-F on all C and U
B8: g17 2'-F (ssRNA)
RNA: GGGACGCUCACGUACGCUAAAGUGAUGGCCGGCUGGAGAAACGGGCCACUCGAUCCAGGUCAGUGCCUGGACGUGCAGU
modifications: 2'-F on all C and U
B9: g31 2'-F (ssRNA)
RNA: GGGACGCUCACGUACGCUAAAGAGUCUAUGCCGUGAGUGAGGGUGGCGCCUCGACUGCCAUCAGUGCCUGGACGUGCAGU
modifications: 2'-F on all C and U
B10: g18 2'-F (ssRNA)
RNA: GGGACGCUCACGUACGCUAAGGCACCCUAUAGGAUUCAGCCCCUAACCCGGUGUUGUGAAUCAGUGCCUGGACGUGCAGU
modifications: 2'-F on all C and U
B11: g26 2'-F (ssRNA)
RNA: GGGACGCUCACGUACGCUAAGCUCCACCAGGUGUAGCUAGCCUGUAGACAUCAGUAGCAUCAGUGCCUGGACGUGCAGU
modifications: 2'-F on all C and U
B12: g22 2'-F (ssRNA)
RNA: GGGACGCUCACGUACGCUAAGCGUGUUUCUUCAUUUCGACGCUGGCCAACGGAAAUGCAAUCAGUGCCUGGACGUGCAGU
modifications: 2'-F on all C and U
B13: g30 2'-F (ssRNA)
RNA: GGGACGCUCACGUACGCUAAAAAUUGCCGGGAUCUGGUGUGGCGACCAUGCGGCGUGCAUUCAGUGCCUGGACGUGCAGU
modifications: 2'-F on all C and U
B14: g27 2'-F (ssRNA)
RNA: GGGACGCUCACGUACGCUAACCUAUGCAGACCGACAUCCGGGUAUACGGGAUGAUGCGACUCAGUGCCUGGACGUGCAGU
modifications: 2'-F on all C and U
B15: g34 2'-F (ssRNA)
RNA: GGGACGCUCACGUACGCUAAUUUGGUGAAUUCCGACCAUUUUGCAAACGGGAUACGGGACUCAGUGCCUGGACGUGCAGU
modifications: 2'-F on all C and U
B16: g20 2'-F (ssRNA)
RNA: GGGACGCUCACGUACGCUAAACGUUGUGGCGAACUUCGGCCCGAACGGGAGUAACUGCAUCAGUGCCUGGACGUGCAGU
modifications: 2'-F on all C and U

rec-cMet (Recombinant Human HGF R/c-MET/Fc Chimera), sequence (P08581 25-307, stated change not applied, chain 1 of 2): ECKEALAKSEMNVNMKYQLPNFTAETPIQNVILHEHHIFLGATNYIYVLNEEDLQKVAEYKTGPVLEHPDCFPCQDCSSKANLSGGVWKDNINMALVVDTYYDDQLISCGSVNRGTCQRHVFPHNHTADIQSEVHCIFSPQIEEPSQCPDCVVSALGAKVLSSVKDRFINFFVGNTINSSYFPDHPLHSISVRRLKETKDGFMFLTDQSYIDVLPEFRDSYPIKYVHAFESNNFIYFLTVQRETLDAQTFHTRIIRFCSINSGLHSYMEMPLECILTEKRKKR
rec-cMet (Recombinant Human HGF R/c-MET/Fc Chimera), sequence (P08581 308-932, stated change not applied, chain 2 of 2): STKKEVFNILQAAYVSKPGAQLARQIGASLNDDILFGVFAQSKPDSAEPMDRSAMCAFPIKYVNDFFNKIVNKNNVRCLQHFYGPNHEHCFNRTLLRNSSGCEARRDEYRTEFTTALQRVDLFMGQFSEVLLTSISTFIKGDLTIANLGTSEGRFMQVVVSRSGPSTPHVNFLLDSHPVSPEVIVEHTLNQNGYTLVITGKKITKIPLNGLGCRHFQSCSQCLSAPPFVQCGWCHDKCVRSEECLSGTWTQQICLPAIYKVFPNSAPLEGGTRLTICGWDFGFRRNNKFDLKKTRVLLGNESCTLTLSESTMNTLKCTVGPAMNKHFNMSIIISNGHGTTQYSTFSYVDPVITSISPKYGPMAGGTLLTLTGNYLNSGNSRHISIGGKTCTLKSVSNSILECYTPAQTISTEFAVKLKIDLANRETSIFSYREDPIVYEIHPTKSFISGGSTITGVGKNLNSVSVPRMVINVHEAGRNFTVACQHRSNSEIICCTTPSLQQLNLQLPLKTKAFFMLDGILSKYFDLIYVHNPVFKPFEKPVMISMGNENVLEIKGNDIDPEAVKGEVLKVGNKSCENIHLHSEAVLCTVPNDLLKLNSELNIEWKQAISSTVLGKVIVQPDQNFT

For the series, the target named is rec-cMet (Recombinant Human HGF R/c-MET/Fc Chimera) (Homo sapiens, UniProt P08581;P08581 SEQ:1-283,SEQ:1-625). The series is described as follows: SPR; rec-cMet 60 nM. Particulars: tags: C-terminal HIEGRMD linker, human IgG Fc (100-330), 6xHis; R&D Systems; chain copies: 2 (inferred, Fc chimera). The protocol:
Using these truncated RNA aptamers, the binding ability thereof to the rec-cMet was examined. The binding ability was analyzed using BIACORE (registered trademark) X (GE Healthcare) in accordance with its instructions for use, with the concentration of the rec-cMet being set to 175 nmol/L. Also, the binding ability of each of the RNA aptamers g1 and g1-trA was examined in the same manner. As a comparative example, the 40N was used, and the binding ability thereof was examined in the same manner.
The binding ability of each of the RNA aptamers to the rec-cMet was examined in the same manner as in Example 5, except that the fluorinated RNA aptamers were used. The concentration of the rec-cMet was set to 60 nmol/L. With the time point at which the introduction of the rec-cMet to the chip was started being 0 seconds, introduction of a buffer was started 60 seconds later. As a comparative example, the same negative control as in Example 6 was used.
On the technique in general: SPR reads the build-up and loss of mass on a sensor chip optically.
On to B1, for which the binding result was “binds”.

In the case of B2, the binding result is reported as “binds”.

On to B3, for which the binding result was “binds”.

Turning to B4, the binding result is “binds”.

As for B5, the binding result is listed as “binds”.

For the molecule B6, the binding result is listed as “binds”.

In the case of B7, the binding result is given as “binds”.

Regarding B8, the binding result is “binds”.

For B9, the binding result is reported as “binds”.

For the molecule B10, the binding result was “binds”.

Take B11: the binding result is “binds”.

For B12, the binding result is recorded as “binds”.

Take B13: the binding result is “binds”.

B14: the binding result was “binds”.

Turning to B15, the binding result was “binds”.

Take B16: the binding result is “binds”.
